Experimental findings from patent US20250066490A1 (PROFOUNDBIO US, published 2025) are described below.

Assay [1] has as its target T1, CD70 ECD (antigen immobilized on the CM5 chip) (UniProt P32970 39-193).
T1 construct: extracellular domain; also called CD70 antigen
T1 sequence (looked up): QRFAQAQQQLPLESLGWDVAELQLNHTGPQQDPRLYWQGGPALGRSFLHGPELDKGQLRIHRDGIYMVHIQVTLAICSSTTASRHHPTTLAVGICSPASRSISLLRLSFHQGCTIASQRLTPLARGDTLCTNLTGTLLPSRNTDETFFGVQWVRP
As to the kind of experiment: SPR (Biacore T200), CD70 ECD on CM5 chip, IgG as analyte. As to the method: (§1) The immobilization of antigen CD70 ECD was performed at 25° C. with HBS-EP as the running buffer. Sensor chip surface of flow cells 1, 4 were activated by freshly mixed 50 mmol/L N-Hydroxy succinimide (NHS) and 200 mmol/L 1-ethyl-3-(3-dimethylaminopropyl) carbodiimide hydrochloride (EDC) for 420s (10 μL/min). Afterwards, CD70 antigen diluted in 10 mmol/L NaAC (pH 4.5) was injected into flow cell 4 to achieve conjugation of the appropriate Response Unit, while flow cell 1 was set as a blank. After the amine coupling reaction, the remaining active coupling sites on chip surface were blocked by 420s injection of 1 mol/L ethanolamine hydrochloride.
(§2) The assay was performed at 25° C. and the running buffer was HBS-EP. Diluted antibodies were injected over the surface of flow cells 1 and 4 during the association phase, followed by injecting running buffer as the dissociation phase. All the data were processed using Biacore T200 Evaluation software version 3.1. Flow cell 1 and a blank injection of buffer in each cycle were used as a double reference for Response Units subtraction. Kinetic data of the interaction between the antibodies and CD70 antigen were obtained through affinity measurement.

Assay [2] deals with T2, cynomolgus CD70 recombinant protein (cynomolgus, UniProt A0A2K5WTU9 39-190).
T2 construct: also called cyno-antigen; cynomolgus CD70 protein
T2 sequence: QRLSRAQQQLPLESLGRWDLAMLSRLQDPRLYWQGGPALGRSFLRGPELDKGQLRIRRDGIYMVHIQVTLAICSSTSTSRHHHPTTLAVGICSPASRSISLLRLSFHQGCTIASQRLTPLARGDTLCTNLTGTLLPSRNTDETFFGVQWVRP
Briefly: ELISA, IgG titrated on coated cynomolgus CD70 recombinant protein (2 µg/ml), anti-human Fc-HRP, OD450. As to the method: (§3) The binding specificity of the CD70 antibodies was tested by ELISA according to a standard protocol. Briefly, 96-well micro-plates were coated with 2 μg/ml of human or cynomolgus CD70 recombinant protein in PBS at 100 μl per well and incubated overnight at 4° C. The plates were washed twice with TBS+0.5% Tween20. 200 μL of blocking buffer (2% BSA in PBS) was added to each well, and the plates were incubated at 37° C. for 2 hours. The plates were washed using the wash buffer mentioned above. Serially diluted antibodies were added to the ELISA plates using 100 μl per well, and the plates were incubated for 1 hour at room temperature. Then plates were washed 3 times. HRP conjugated anti-human Fc antibody solution (Sigma, I18885-2ML, diluted with blocking buffer) was added to the plates using 100 μl per well. The plates were incubated at room temperature for 1 hour and then washed 3 times. Then the TMB solution was added to plates using 100 μl per well and the plates were placed at RT for 5-15 mins. Then the stop solution (2M H2SO4) was added using 50 μl per well. The absorbance was measured at A450 and A630.

Assay [3] concerns the target T1, CD70 ECD (antigen immobilized on the …). As to the kind of experiment: SPR (Biacore T200), CD70 ECD on CM5 chip; upper end tied to 2A4P0L1 by the KD values of Table 8. As to the method:
as §1, §2
In general terms: SPR reads the build-up and loss of mass on a sensor chip optically.

Assay [4] has as its target T3, human CD70 recombinant protein (human, UniProt P32970 39-193, limits assumed).
T3 construct: May be the same reagent as ACRO CDL-H5246; also called CD70 protein
T3 sequence (looked up): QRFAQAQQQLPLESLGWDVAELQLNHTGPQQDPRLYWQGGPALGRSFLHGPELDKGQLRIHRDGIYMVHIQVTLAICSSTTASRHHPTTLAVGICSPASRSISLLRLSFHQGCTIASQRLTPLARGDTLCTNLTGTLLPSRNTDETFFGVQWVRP
As to the kind of experiment: ELISA, IgG titrated on coated human CD70 recombinant protein (2 µg/ml), anti-human Fc-HRP, OD450. How it is done:
as §3

The target in assay [5] is T4, human CD70 expressed on the cell surface of tumor cell lines (human, UniProt P32970 1-193).
T4 sequence (looked up): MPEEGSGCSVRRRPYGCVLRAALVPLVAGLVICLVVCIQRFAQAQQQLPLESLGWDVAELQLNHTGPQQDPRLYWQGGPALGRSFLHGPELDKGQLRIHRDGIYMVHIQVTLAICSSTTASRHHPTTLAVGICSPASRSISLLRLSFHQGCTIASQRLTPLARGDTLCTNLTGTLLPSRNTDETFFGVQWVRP
As to the kind of experiment: cell-based or functional assay.

Assay [6] deals with T4, human CD70 expressed on the cell …. As to the kind of experiment: flow cytometry on 786-O cells, PE anti-human Fc, MFI; same fit as Table 6, which prints it in nM. As to the method: (§4) The lead antibodies were tested for binding to renal carcinoma cells and glioblastoma cells expressing CD70 on the cell surface by flow cytometry. […] U251 cells were cultured with MEM medium containing of 10% FBS and 1% NEAA+1 mM sodium pyruvate. DBTRG-05MG cells were cultured with DMEM medium (Gibco, Cat #C11995500BT) containing of 10% FBS. Each of the lead antibodies and the controls were incubated for 30 mins with the different cell lines (3×10⁵ cells per well) in 0.2 ml FACS buffer (1×PBS with 0.1% BSA) at 4° C. Then, the cells were pelleted, washed, and incubated at 4° C. for 30 mins with 100 μl of 1:200 diluted PE-conjugated anti human Fc (Abcam, Ab98596) in FACS buffer. The cells were pelleted again, washed with PBS, resuspended in FACS buffer and analyzed by flow cytometer (Beckman, CytoFLEX).
(§5) Antibodies 2H8 and 2D2 had slightly higher binding ability to the cell lines than that of antibody 69A7.
In general terms: Flow cytometry measures light scatter and fluorescence of single cells or particles in a stream.

Assay [7] has the same target. Briefly: flow cytometry on U251 cells. As to the method:
as §4, §5

The target is the same in assay [8]. As to the kind of experiment: flow cytometry on DBTRG-05MG cells, PE anti-human Fc, MFI; same fit as Table 6, which prints it in nM. How it is done: as §4, §5
For assay [9] the target is unchanged. Briefly: flow cytometry on 786-O cells. How it is done:
as §4, §5

The target is the same in assay [10]. As to the kind of experiment: flow cytometry on DBTRG-05MG cells. How it is done: as §4, §5
Assay [11] shares this target. Briefly: flow cytometry on Caki-1 cells, PE anti-human Fc, MFI; same fit as Table 6, which prints it in nM. How it is done: as §4, §5
Assay [12] has the same target. Briefly: flow cytometry on U251 cells, PE anti-human Fc, MFI; same fit as Table 6, which prints it in nM. How it is done: as §4, §5
For assay [13] the target is unchanged. As to the kind of experiment: flow cytometry on Caki-1 cells. How it is done: as §4, §5

The term Kd denotes the constant that tells how readily two partners part at equilibrium. Low values mean higher affinity, high ones lower affinity. As usually defined, the koff is a measure of how fast the partners let go of each other. A word on the kon: it is a measure of how fast the partners come together. One may read the EC50 as the midpoint of the concentration-response curve.

B1: 2A4P0L1, full IgG (antibody, V domains shown)
VH: QVQLQESGPGLVKPSETLSLTCTVSGGSVSSDYYYWSWIRQPPGKGLEWLGYIYYSGSTNYNPSLKSRVTISVDTSKNQFSLKLRSVTTADTAVYYCARGDGDYGGNVFPYWGQGTLVTVSS
VL: EIVLTQSPATLSLSPGERATLSCRASQSVSSYLAWYQQKPGQAPRLLIFDASNRATGIPARFSGSGSGTDFTLTISSLEPEDFAVYYCQQRLKFPLTFGGGTKVEIK
In assay [1], B1 registered an equilibrium dissociation constant (Kd) of 38.6 nM. The molecule further came in with a koff in assay [1] of 0.00197 s⁻¹. In assay [1], this molecule yielded a kon of 51000 M⁻¹ s⁻¹. In addition, the EC50 in [2] amounted to 0.00335 µg/mL; in [4], 0.263 µg/mL; in assay [6] it was 0.447 µg/mL; in assay [7] it was 4.72 nM; in assay [8] it was 0.876 µg/mL; in [9], 2.98 nM. Also, the half-maximal effective concentration (EC50) came to 5.84 nM in assay [10], 0.816 µg/mL in assay [11], 0.708 µg/mL in assay [12] and 5.44 nM in [13]. The “fold improved affinity against parent antibody 69A7” value in assay [3] was 3 to 8 fold. Further, the “Internalization rate (%) on 786-O” value in [5] turned out to be 61%. Moreover, the “Internalization rate (%) on Caki-1” value in assay [5] was found to be 22%.
